Measurements as given in IntAct's records for PubMed 22056770.

B1: Flagellum site-determining protein YlxH (Bacillus subtilis), P40742 (parent)
chain: MQMNRYDQAATLRAKMEKRERVLPMVYSQKAKTLAVISGKGGVGKSNITLNMALALQDKGKKVLLIDLDIGMGNIDILIGNSSSATIIDVLTDRKPLLQSLSVGPKGLRYISGGTGLDVMFQLDQRKWTFFANELSHALSQFDYVLFDMGAGLSKDQLPFILSAEDILIITTPEPTAIMDAYSAVKHLVLTENKLSMKVAVNRCRDQKEGLDAFARLSRTIHMFLDVQVQFAGSVSDDVIVSKAVVEQVPFFIKSPQAKASRSVRILADALFEREETRHKEDKQTFIEKLSSFLMRRA
partner: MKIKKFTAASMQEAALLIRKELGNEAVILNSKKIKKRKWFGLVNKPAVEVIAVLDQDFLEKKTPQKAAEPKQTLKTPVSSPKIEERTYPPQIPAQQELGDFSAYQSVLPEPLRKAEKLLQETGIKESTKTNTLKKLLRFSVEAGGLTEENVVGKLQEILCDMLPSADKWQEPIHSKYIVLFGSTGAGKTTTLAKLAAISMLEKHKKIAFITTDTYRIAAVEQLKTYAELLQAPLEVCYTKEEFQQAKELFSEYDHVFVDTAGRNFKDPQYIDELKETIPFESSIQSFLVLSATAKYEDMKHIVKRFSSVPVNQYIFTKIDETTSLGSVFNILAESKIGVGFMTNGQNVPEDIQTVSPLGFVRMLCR
B2: Flagellar biosynthesis protein FlhF (Bacillus subtilis), Q01960 (parent)
chain: B1 partner
partner: B1 chain

Variants of: B1
Conditions: with flhf_bacsu flhF

effect of a mutation on the interaction	Variant
disrupting interaction	Q8A

Variants of: B2
Conditions: with ylxh_bacsu ylxH

effect of a mutation on the interaction	Variant
disrupting interaction	R216A
